T1: C-term Biotin Nav1.7 (3-1) peptide, human (human, not fully specified; C-terminal biotin attached via a G4S linker)
T1 construct: Synthetic peptide; also called Human Nav1.7 3-1 C-term biotin
T1 peptide: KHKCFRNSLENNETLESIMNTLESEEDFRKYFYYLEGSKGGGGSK

T2: Native Nav1.7 (3-1) peptide, rat (rat)
T2 construct: Synthetic peptide; also called Rat Nav1.7 3-1 native
T2 peptide: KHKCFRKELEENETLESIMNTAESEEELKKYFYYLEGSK

T3: Native Nav1.7 (3-1) peptide, human (human)
T3 construct: Synthetic peptide (Celtek), unbiotinylated; also called Human Nav1.7 3-1 native; Nav1.7 3-1 native peptide
T3 peptide: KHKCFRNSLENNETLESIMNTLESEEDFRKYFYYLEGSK

T4: N-Term Biotin Nav1.7 (3-1) peptide, mouse (mouse, not fully specified; N-terminal biotin attached via a G4S linker)
T4 construct: Synthetic peptide; also called Mouse Nav1.7 3-1 N-term biotin
T4 peptide: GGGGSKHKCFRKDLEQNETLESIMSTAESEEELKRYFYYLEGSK

T5: N-Term Biotin Nav1.7 (3-1) peptide, mulatta (mulatta (monkey), not fully specified; N-terminal biotin attached via a G4S linker)
T5 construct: Synthetic peptide; also called Mulatta Nav1.7 3-1 N-term biotin; monkey
T5 peptide: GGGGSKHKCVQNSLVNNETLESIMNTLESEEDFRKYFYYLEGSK

T6: N-Term Biotin-Nav1.7 (3-1) peptide, human (human, not fully specified; N-terminal biotin attached via a G4S linker)
T6 construct: ELISA peptide
T6 peptide: T5 peptide with V10F, Q11R, V15E

B1: H1M834N (antibody, V domains shown)
VH: QVQLVESGGGVVQPGRSQRLSCAASGFTFSHYGMHWVRQAPGKGLEWVAVISYDGNNKHYADSVKGRFTTSRDNSKNTLFLQMNSLRAEDTAVYYCARGYSGYVLDYWGQGTLVTVSS
VL: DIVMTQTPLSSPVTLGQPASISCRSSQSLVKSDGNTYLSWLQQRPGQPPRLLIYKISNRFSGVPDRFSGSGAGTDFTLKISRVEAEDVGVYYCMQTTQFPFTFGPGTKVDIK
B2: H1M875N (antibody, V domains shown)
VH: B1 VH
VL: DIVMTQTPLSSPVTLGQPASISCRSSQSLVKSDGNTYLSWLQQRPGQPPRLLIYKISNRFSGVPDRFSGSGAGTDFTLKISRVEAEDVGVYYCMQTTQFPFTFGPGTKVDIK
notes: also called H1H875N
B3: H1M839N (antibody, V domains shown)
VH: QVQLVESGGGVVQPGRSLRLSCAASGFTFSNYGMHWVRQAPGKGLEWVAVTSYDGSNKHYADSVKGRFSTSRDNPKNTLYLQMDSLRGEDTAVYYCARGYSGFVLDNWGQGTLVTVSS
VL: DIVMTQTPLSSPVTLGQPASISCRSSQSLVKSDGNTYLSWLQQRPGQPPRLLIYKISNRFSGVPDRFSGSGAGTDFTLKISRVEAEDVGIYYCMQTTQFPFTFGPGTKVDIK
B4: H4H397B (antibody, V domains shown)
VH: QVQLVQSGGGVVQPGRSLRLSCAASGFTFSSYGMHWVRQAPGKGLEWVALISYAGINEYYADSVKGRFTISRDDSKNTLYLQMNSLRVEDTAVYYCAKSRGYSYGLGYWGQGTLVTVSS
VL: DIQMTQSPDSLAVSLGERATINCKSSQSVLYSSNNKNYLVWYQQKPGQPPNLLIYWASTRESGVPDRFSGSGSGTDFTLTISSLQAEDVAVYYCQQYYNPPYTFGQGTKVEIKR
B5: H4H368B (antibody, V domains shown)
VH: B4 VH with Q1E, L50V, A54Q, G55E, I56S, E58K, Y59H, A61V, D74N, V88A
VL: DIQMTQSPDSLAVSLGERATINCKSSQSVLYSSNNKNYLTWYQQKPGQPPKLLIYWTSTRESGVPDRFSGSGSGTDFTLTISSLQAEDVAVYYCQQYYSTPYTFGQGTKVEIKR

Numbering of substitutions follows the chain as printed.

The target in one assay is T1, C-term Biotin Nav1.7 (3-1) peptide, …. As to the kind of experiment: SPR, captured biotin-peptide, antibody analyte. The procedure:
(§1) The binding affinities of anti-Naᵥ 1.7 antibodies to Naᵥ 1.7 loop peptides were determined by Biacore. For monovalent kinetic experiments, antibodies were captured through the Fc region via a goat anti-Fc-coupled biosensor surface, and the peptides (as analyte) were injected over this captured antibody surface. For bivalent (avidity-driven) kinetic experiments, biotinylated peptides corresponding to the Naᵥ 1.7 3-1, 3-3, or paddle loop sequences were captured on a NeutrAvidin sensor surface, and anti-Naᵥ 1.7 antibodies (as analyte) were injected over this surface. Following the capture step, each analyte was individually injected at several concentrations over its respective capture surface, and changes in bound surface units (RU) were monitored. The dissociation rate is independent of the concentration of analyte used in the experiment, and the dissociation rate constant (kd) was determined from the change in antibody-bound analyte RU over time. The Biacore kinetic data were obtained using a double referencing procedure. The double referencing was conducted by first subtracting any interaction of the analyte over the reference surface (i.e., the anti-Fc coupled surface alone or the NeutrAvidin surface alone), thereby correcting for nonspecific binding to capture surface and for refractive index changes. Control buffer injections (no analyte) over the antibody- or peptide-captured surfaces were also performed to allow subtraction of RU signal changes resulting from the natural dissociation of captured binding partner from the sensor surface. The kinetic parameters were obtained by globally fitting the data for all concentrations tested for a given peptide or antibody to a 1:1 binding model using Biacore T100 Evaluation Software version 2.0.2. The KD was calculated as the dissociation rate constant divided by the association rate constant (KD=kd/kₐ). The dissociative half-life (t_{1/2}) was calculated from the dissociation rate constant (t_{1/2}=In2/kd).
B1: binding was put at a Kd of 0.751 nM and the t1/2 amounted to 82.5 min.

With B2, the affinity, expressed as Kd, was 0.78 nM and the t1/2 amounted to 87.2 min.

In the case of B3, the Kd (commonly the free concentration of one partner at which half of the binding sites on the other are occupied at equilibrium, for simple one-to-one binding) came out at 0.692 nM and the t1/2 stood at 137 min.

Turning to B4, the dissociation constant Kd worked out at 0.299 nM and the t1/2 came to 206 min.

The target in a further assay is T2, Native Nav1.7 (3-1) peptide, rat. As to the kind of experiment: SPR, captured antibody, peptide analyte. The method, then:
as §1
In the case of B1, the Kd came out at 10.2 nM and the t1/2 stood at 2.3 min.

For B2, the affinity, expressed as Kd, was 6.7 nM and the t1/2 stood at 3 min.

On to B3, for which the affinity, expressed as Kd, was 7.11 nM and the t1/2 was 3.2 min.

Consider B5, for which the Kd came out at 127 nM and the t1/2 is 0.32 min.

For B4, the affinity, expressed as Kd, was 14.2 nM and the t1/2 was found to be 3.3 min.

The next assay addresses T3, Native Nav1.7 (3-1) peptide, human. Put plainly: SPR, captured antibody, peptide analyte. The method, then: as §1
Turning to B1, the Kd is 5.53 nM and the t1/2 is 12 min.

B2 displayed a Kd of 5.85 nM and a t1/2 of 12.5 min.

With B3, the Kd was determined as 3.32 nM and the t1/2 was 18.2 min.

B4 came in with a Kd of 2.37 nM and a t1/2 of 34 min.

Another assay concerns the target T4, N-Term Biotin Nav1.7 (3-1) peptide, …. Put plainly: SPR, captured antibody, peptide analyte. The procedure:
as §1
A general note: In SPR one partner is held on a chip, and binding of the other changes the refractive index at the surface.
In the case of B1, binding was put at a Kd of 19.2 nM and the t1/2 was 2.8 min.

The molecule B2 registered a Kd of 12 nM and a t1/2 of 3.2 min.

Consider B3, for which the Kd worked out at 15.1 nM and the t1/2 came to 3.1 min.

B5 had a Kd of 12 nM and a t1/2 of 964 min.

B4: the Kd came to 43.5 nM and the t1/2 is 3.92 min.

Another assay deals with T5, N-Term Biotin Nav1.7 (3-1) peptide, …. Put plainly: SPR, captured antibody, peptide analyte. The procedure: as §1
B1 registered an equilibrium dissociation constant (Kd) of 2.39 nM and a t1/2 of 20.3 min.

On to B2, for which the Kd was found to be 1.89 nM and the t1/2 is 26.5 min.

The molecule B3 gave a Kd of 1.47 nM and a t1/2 of 28.7 min.

Regarding B4, binding was characterised by a dissociation constant (Kd) of 0.097 nM and the t1/2 is 289 min.

In the next assay the target is T2, Native Nav1.7 (3-1) peptide, rat. As to the kind of experiment: ELISA on coated peptide, antibody 1 ug/ml, OD450 grade. The method, then: (§2) Anti-Naᵥ 1.7 antibodies were tested for their ability to bind to the Naᵥ 1.7 peptides. The various peptides were coated overnight onto 96-well Nunc Immunosorp plates at a concentration of 4 μg/mL in PBS, followed by blocking for 1 hour in a suitable blocking agent. For biotinylated peptides, avidin was first coated on Nunc Immunosorp plates at 2 μg/mL in PBS overnight, followed by blocking as described, and the plate was then coated with biotinylated peptides at a concentration of 0.4 μg/mL and incubated for 1 hour at room temperature. Purified anti-Naᵥ 1.7 antibodies were diluted to a final concentration of 0.1 μg/mL and 1.0 μg/mL and added to the wells of the coated microtiter plates followed by incubation for 1 hour at room temperature. Bound antibodies were detected with horseradish peroxidase (HRP) conjugated anti-mouse or anti-human IgG (Jackson Immuno Research Lab, West Grove, Pa.) depending on the antibody species and developed by colorimetric response using tetramethylbenzidine (TMB) substrate (BD Biosciences). Absorbance was read at OD₄₅₀ on a plate reader for 0.1 second.
(§3) Values in Table 11 represent absolute binding ranges (at OD450) to plate-coated peptides for antibodies added at 1 μg/ml as follows: OD450<0.2: −; 0.2<OD450<1: +; 1<OD450<2: ++; 2<OD450<4: +++; NT: Not Tested.
In turn, B1 displayed an OD450 of 2 to 4 od.

B2: the OD450 was 2 to 4 od.

In turn, B3 came in with an OD450 of 2 to 4 od.

B5 gave an OD450 of 2 to 4 od.

In turn, B4 came in with an OD450 of 2 to 4 od.

A further assay deals with T4, N-Term Biotin Nav1.7 (3-1) peptide, …. The assay is described as above. The procedure: as §2, §3
As to B1, the OD450 fell in the range of 1 to 2 od.

For the molecule B2, the OD450 was 2 to 4 od.

Consider B3, for which the OD450 was in the range of 2 to 4 od.

Consider B4, for which the OD450 is 2 to 4 od.

Another assay deals with T6, N-Term Biotin-Nav1.7 (3-1) peptide, …. The description is as above. The procedure: as §2, §3
B1: the OD450 is 2 to 4 od.

Consider B2, for which the OD450 was in the range of 2 to 4 od.

The molecule B3 came in with an OD450 of 2 to 4 od.

In turn, B4 gave an OD450 of 2 to 4 od.

A further assay addresses T5, N-Term Biotin Nav1.7 (3-1) peptide, …. The assay is described as above. The method, then: as §2, §3
As for B1, the OD450 fell in the range of 2 to 4 od.

As to B2, the OD450 was in the range of 2 to 4 od.

B3 gave an OD450 of 2 to 4 od.

The molecule B4 yielded an OD450 of 2 to 4 od.

For a further assay, the target named is T7, full-length human Nav1.7 fused at its N-terminus to GFP, expressed in HEK293 cells (human, UniProt Q15858 1-1988).
T7 construct: Voltage-gated sodium channel alpha subunit; In the Western blot it stood as denatured cell lysate; also called hNav 1.7-GFP-HEK293; Nav 1.7-GFP-HEK293; not shown: green fluorescent protein (GFP) at the N-terminus
As to the kind of experiment: flow cytometry; % stained hNav1.7-GFP-HEK293 minus parental HEK293. The procedure: The binding of anti-Naᵥ 1.7 human antibodies to full-length Naᵥ 1.7 expressed in HEK293 cells was determined by flow cytometry (FACS). HEK293 cells were stably-transfected with full-length human Nav1.7 fused at its N-terminus to the green fluorescent protein (GFP) to generate cell line hNaᵥ 1.7-GFP-HEK293. Antibody binding to the transfected cells overexpressing Naᵥ 1.7 was compared to binding to the parental HEK293 cell line. To perform the binding experiments, adherent cells were collected using 1 mM EDTA in PBS, washed and re-suspended in cold PBS containing 5% FBS. For each binding experiment, the anti-Naᵥ 1.7 antibody (at concentrations ranging from 1 nM to 13 nM), was added to 250,000 cells in 500 μL of PBS with 5% FBS. After incubation for 20 minutes on ice, the secondary antibody, recognizing either human-Fc and conjugated to cyanine 5 (Cy5) or recognizing mouse-Fc and conjugated to allophyocyanin (APC), was then added to the cell mixture at a final secondary antibody concentration of 1.7 nM. After incubating for 20 minutes on ice, the cells were resuspended in PBS+5% FBS and then sorted and analyzed on a flow cytometer to determine relative binding by the candidate antibodies. For FACS analysis, gating was applied to examine only healthy live cells in the antibody binding experiments, and percentage stained was recorded. Staining of secondary antibodies alone to Naᵥ 1.7-GFP-HEK293 cells gave low background signals (1-2%). Specific binding was measured as the percent binding to Naᵥ 1.7-GFP-HEK293 cells minus percent binding to parental HEK293 cells.
On the technique in general: A flow cytometer gives signals particle by particle.
With B1, the “% Binding Nav1.7” value was 4.8%.

Turning to B2, the “% Binding Nav1.7” value is 5.9%.

In the case of B3, the “% Binding Nav1.7” value was 5.1%.

In the next assay the target is T7, full-length human Nav1.7 fused at its …. Put plainly: cell-based or functional assay.
As for B1, the “Current blocking (Average % inhibition), IonWorks Quattro, 223 nM antibody” value (“Current blocking (Average % inhibition)” for short) is -14%.

B2: the “Current blocking (Average % inhibition)” value was determined as 25%.

Take B3: the “Current blocking (Average % inhibition)” value was 13%.

On to B4, for which the “Current blocking (Average % inhibition)” value was -50%.

(Values after patent US20160024208A1 (Regeneron, published 2016).)
